Columns and labels:
human CypA (1–165) [1] = target: T1, human CypA (1–165) (human, UniProt P62937 1-165); assay: NMR titration
human CypA (1–165) [2] = target: T1, human CypA (1–165)

Binder	binding result (human CypA (1–165) [1])	fold higher affinity than wild-type CrkII (human CypA (1–165) [2])
PEPGPYAQPS [CrkII peptide (Pro216-Ser225)]	binds	
CrkII^P218F (natural protein) MAGNFDSEERSSWYWGRLSRQEAVALLQGQRHGVFLVRDSSTSPGDYVLSVSENSRVSHYIINSSGPRPPVPPSPAQPPPGVSPSRLRIGDQEFDSLPALLEFYKIHYLDTTTLIEPVSRSRQGSGVILRQEEAEYVRALFDFNGNDEEDLPFKKGDILRIRDKPEEQWWNAEDSEGKRGMIPVPYVEKYRPASASVSALIGGNQEGSHPQPLGGPEFGPYAQPSVNTPLPNLQNGPIYARVIQKRVPNAYDKTALALEVGELVKVTKINVSGQWEGECNGKRGHFPFTHVRLLDQQNP		~20 fold
